Reference: the RNAGym collection of RNA variant scans (doi:10.1073/pnas.2313332121)

B1: TPR t1 (parent)
chain: GACCAAUCUGCCCUCAGAGCUCGAGAACAUCUUCGGAUGCAGAGGAGGCAGGCUUCGGUGGCGCGAUAGCGCCAACGUCCUCAACCUCCAAUGCAUCCCACCACAUGAUGAUGCCUGAAGAGCCUUGGUUUUUUG

Variants of: B1
Assay: polymerase ribozyme fitness, log enrichment relative to wild type (log ratio); higher = more active; in vitro selection for triplet polymerase activity
Method in brief: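 A single round of triplicate in vitro selection, including frozen incubation at −7 °C, was applied to PCR-built, transcribed mutant libraries of each subunit of a heterodimeric triplet polymerase ribozyme. Illumina sequencing of input and output libraries retained genotypes with ≥10 input reads and ≥1 read per output. Fitness is the base-2 logarithm of genotype enrichment divided by wild-type enrichment, from inverse-variance-weighted replicate averages.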

Variant | polymerase ribozyme fitness (log ratio)
G19U C53G U54A G61A C124A G128A | -3.82
G19C U78C G110C | -5.42
C20A U21A C73G | -4.94
C20A G23A G36A G48A G113A | -7.55
U21G C56U A111G U112G | -0.871
U21A G39U G48A A74U U78G | -2.09
C20G G71C | -5.08
G19U G45U A111C | -4.74
U21G G61C U87A U133G G135U | -3.09
C20A C40U U59A G117U G128C | -4.96
G19A C53A C101U | -2.73
C20A A46U G52A | -3.85
C20A G63A C94A U112A | -2.57
C20U A95C | -2.07
U21C G39U C56U C101U U112A | -0.219
C20U G36U G135U | -2.95
C20A G71A U129G | -5.06
G19U A43U G60C C82G | -3.71
G19A C56U C115A | -3.68
U21A G57U C85U G120U | -2.48
C20U A50U U78C | -1.87

Variant | polymerase ribozyme fitness (log ratio)
U21G C62A C124A U131A | -1.77
G19A C73U | -2.61
U21A G39U C62A | -2.62
U21A U130A | -0.5
U21A U130G | 0.0378
G19A C73A A105U C114U U116G | -5.41
C20A C53U C72G U126G | -3.99
U21C G113C | -1.14
U21C C56A C70U G110U | -6.01
G19C C40U G48U G110C | -6.52
C20G C114G C115U | -6
U21G G23U A27G A83C U112G | -7.42
U21G C53U C64U C79A | -3.11
C20G U78C U109G | -3.79
G19A C72U A75U C114A | -2.05
C20U C114G | -1.55
C20U G71A | -1.94
C20A U38A G48A C104A A121U | -6.26
U21A C53G C64U U106C | -0.936
U21C A74U G120A | -0.17
C20A U106A C124A | -1.85

Variant | polymerase ribozyme fitness (log ratio)
U21A C76U | -0.123
G19A U78C C124A U129C | -1.77
G19C C22A C53G U59G C123A | -5.66
C20U C72U U78A A111G C123G G135C | -3.01
U21A C53G U54G U87A | -4.55
C20U G52U G61U U87C | -1.96
G19A U96A C114A G127U | -3.48
G19A U109A | -5.74
G19C U55A C64U A66U C104U | -3.86
A18U U78G U96G | -4.41
C22A A26G G39A G63C C99A C115G | -4.89
C20U U129A | -2.67
C20A G42U G47U C53U | -3.95
C20G A83C A100U G120A U130C | -5.79
C20A G51C C56A C79U U106A A121U | -7.26
G19C G71U G120U G122A C123U | -3.78
C20A A29G G36U | -6.08
C20A G45U C53G C88U A111U U125G | -4.56
U21C A29U A84C U112A A119G G120C | -0.885
C20G G57C | -4.41
C20A C22A G69U U81G U96G A121U | -5.24

Variant | polymerase ribozyme fitness (log ratio)
C20U A37G C102A | -3.43
G19C C40A C85U U112A | -2.1
G19A G60A C114A | -1.62
G19C C70U | -2.55
C20U G42A U106A G113C | -2.24
C20G G71A A83C | -5.59
C20A U54A U131G | -3.27
G19A C101U | -3.3
G19U C88A | -2.97
G19U U54G C56U C123G | -6.86
U21C G61C C85A A95U | -4.53
U21G G61U G120U C123A | -1.78
U21A G71A C88U G93A | -2.14
G19U C76A C85U C124G | -3.5
U21C G42A U109A G117C | -7.38
C20A C34A A41C U109A | -4.4
C20A C49U G61U C85A | -3.53
C20U A91G | -2.03
C20U C49U C56G U78G U81A C86U U133G | -3.51
U21C C28U C72U | -1.89
G19C C53A G93A C123U | -2.59
